The values below are quoted from earlier work in paper PMC6826157.

As usually defined, the pKa is the pH at which an ionisable group is half protonated.

The target in one data set is Asp137 (UniProt position 137, SNYFFDTTQGH). Put plainly: kinetics. The note with it: V/K profile with the natural substrate L-tryptophan (free enzyme plus substrate).
The next data set deals with Lys270 (UniProt position 270, AMSAKKDAMVP). Put plainly: kinetics. The note with it: V/K profile with the natural substrate L-tryptophan (free enzyme plus substrate).

Regarding “Tryptophan indole-lyase (tryptophanase, TIL, EC 4.1.99.1) (Escherichia coli)”, the pKa is listed as 6.0 ± 0.2 with Asp137 and 7.6 ± 0.09 with Lys270.
